According to US5928915A, “CHO cell sialidase by recombinant DNA technology” (Genentech, Inc., priority 1997, dated 1999):

Key:
Experiment in all cases: Sialidase kinetic constants with soluble sialylglycoconjugate substrates
Assay type in all cases: biochemical, Chinese hamster
Conditions in all cases: other: apparent; standard assay conditions; average of duplicates, relative error about 10%; 37.0 °C
[1] = substrate: CC(=O)N[C@H]1[C@H]([C@H](O)[C@H](O)CO)O[C@@](O[C@H]2[C@@H](O)[C@@H](CO)O[C@@H](O[C@H]3[C@H](O)[C@@H](O)C(O)O[C@@H]3CO)[C@@H]2O)(C(=O)O)C[C@@H]1O
Method: (§1) Fluorescent sialidase assays: Standard assay conditions for monitoring the enzyme activity during purification using the fluorescent substrate analog are: 1.3 mM 4-MUNeu5Ac, 50 mM phosphate buffer, pH 6.8, 0.3 mg bovine serum albumin and varying amounts of enzyme in a total volume of 30 μl. After addition of enzyme the samples are incubated at 37° C. in a shaking water bath for 5 minutes. The reaction is terminated and the fluorescence of the liberated umbelliferone is enhanced by the addition of 2 ml of 80 mM glycine-carbonate buffer, pH 9.7. Quantification of the product is made by measuring the fluorescence of the samples with excitation at 365 nm and emission at 450 nm using a standard of 4-methyl umbelliferone. A unit of enzyme activity is defined as a μmol/min of sialic acid liberated.
(§2) Sialidase assays with natural substrates: When natural substrates are tested with the purified enzyme, the amount of released sialic acid is measured using the thiobarbituric acid assay as modified by Uchida [Uchida et al. J. Biochem., 82:1425 (1977)] using sialic acid as standard. The amount of sialic acid in control samples, which include a complete assay mixture incubated without added enzyme is subtracted from each determination. All samples are cleared by centrifugation (1,000×G, 10 min) prior to determining the absorbance at 540 nm.
(§3) Enzyme kinetic parameters: Assay conditions (time and added enzyme) are modified for each substrate so that initial reaction rates are measured. Kinetic parameters are obtained from double reciprocal plots of the substrate saturation curves [Segel, I. H. John Wiley, New York, Enzyme Kinetics, 18 (1975)].

[2] = substrate: CC(=O)N[C@H]1[C@H]([C@H](O)[C@H](O)CO)O[C@@](O[C@H](CO)[C@@H](O)[C@@H]2OC(O)(C(=O)O)C[C@H](O)[C@H]2NC(C)=O)(C(=O)O)C[C@@H]1O
Method: as §1, §2, §3

[3] = substrate: CC(=O)N[C@H]1[C@H]([C@H](O)[C@H](O)CO)O[C@@](Oc2ccc3c(C)cc(=O)oc3c2)(C(=O)O)C[C@@H]1O
Method: as §1, §2, §3

[4] = substrate: CC(=O)N[C@H]1[C@H]([C@H](O)[C@H](O)CO)O[C@@](OC[C@H]2O[C@@H](O[C@H]3[C@H](O)[C@@H](O)C(O)O[C@@H]3CO)[C@H](O)[C@@H](O)[C@H]2O)(C(=O)O)C[C@@H]1O
Method: as §1, §2, §3

B1: CHO cell sialidase (Cricetulus griseus) (protein)
chain: MATCPVLQKETLFQTGDYAYRIPALIYLSKQKTLLAFAEKRLTKTDEHADLFVLRRGSYNADTHQVQWQAEEVVTQAYLEGHRSMSPCPLYDKQTRTLFLFFIAVRGQISEHHQLQTGVNVTRLCHITSTDHGKTWSAVQDLTDTTIGSTHQDWATFGVGPGHCLQLRNTAGSLLVPAYAYRKQPPIHAPAPSAFCFLSHDHGSTWELGHFVSQNSLECQVAEVGTGAERVVYLNARSCLGARVQAQSPNSGLDFQDNQVVSKLVEPPKGCHGSVIAFPNPTSKADALDVWLLYTHPTDSRKRTNLGVYLNQKPLDPTTWSAPTLLATGICAYSDLQNMGHGPDGSPQFGCLYESNNYEEIVFLMFTLKQAFPAVFGAQ
notes: The sialidase described was purified from the cell culture fluid of a single production cell line (CHO 14.16); endogenous in cells; host or cells: CHO 14.16 cells (purified from the cell culture fluid)
Km [1]: 1300 µM
Vmax [1]: 16 µmol/min/mg
Km [2]: 3400 µM
Vmax [2]: 11 µmol/min/mg
Km [3]: 400 µM
Vmax [3]: 18 µmol/min/mg
Km [4]: 1200 µM
Vmax [4]: 4 µmol/min/mg
